Reference: doi:10.1101/488536, “The Ca^2+ sensor protein CMI1 fine tunes root development, auxin distribution and responses” (bioRxiv, 2018)

Tests used:
GST-ICR1 = target: T1, GST-ICR1 (Arabidopsis, UniProt Q8LE98 1-344); assay: pull-down; GST-ICR1 (1.2 μg) or GST (0.4 μg) on Glutathione sepharose, 0.5 μg His6-CMI1; 20 mM Tris-HCl pH 7.5, 5 mM CaCl2, 0.1 mg/mL BSA, 200 mM NaCl, 1% Triton X-100, RT; wash with 1 M NaCl; conditions: both partners purified
T1 construct: ICR1, Arabidopsis; source: E. coli Rosetta (DE3), purified (Glutathione sepharose)
T1 sequence (looked up): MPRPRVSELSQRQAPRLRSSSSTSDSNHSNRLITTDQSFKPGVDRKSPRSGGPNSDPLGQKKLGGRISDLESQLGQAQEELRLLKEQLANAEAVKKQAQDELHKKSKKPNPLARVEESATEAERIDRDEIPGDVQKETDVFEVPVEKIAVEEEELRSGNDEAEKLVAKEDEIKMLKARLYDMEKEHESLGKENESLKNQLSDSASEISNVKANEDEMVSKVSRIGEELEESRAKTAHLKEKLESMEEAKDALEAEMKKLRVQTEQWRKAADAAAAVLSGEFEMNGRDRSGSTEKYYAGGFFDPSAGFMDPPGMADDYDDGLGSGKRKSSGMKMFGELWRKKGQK

His6-ICR1 = target: T2, His6-ICR1 (Arabidopsis, UniProt Q8LE98 1-344); assay: co-IP; His6-CMI1 and His6-ICR1, 1 μg each, in 300 μL Ca^2+ reaction buffer (20 mM Tris-HCl pH 7.5, 5 mM CaCl2, 0.1 mg/mL BSA, 200 mM NaCl, 1% Triton X-100), RT; anti-CMI1 antibodies and Protein A beads; blot with anti poly-His; conditions: both partners purified
T2 construct: ICR1, Arabidopsis; also called His-ICR1; source: E. coli Rosetta (DE3), purified (Ni-NTA)
T2 sequence (looked up): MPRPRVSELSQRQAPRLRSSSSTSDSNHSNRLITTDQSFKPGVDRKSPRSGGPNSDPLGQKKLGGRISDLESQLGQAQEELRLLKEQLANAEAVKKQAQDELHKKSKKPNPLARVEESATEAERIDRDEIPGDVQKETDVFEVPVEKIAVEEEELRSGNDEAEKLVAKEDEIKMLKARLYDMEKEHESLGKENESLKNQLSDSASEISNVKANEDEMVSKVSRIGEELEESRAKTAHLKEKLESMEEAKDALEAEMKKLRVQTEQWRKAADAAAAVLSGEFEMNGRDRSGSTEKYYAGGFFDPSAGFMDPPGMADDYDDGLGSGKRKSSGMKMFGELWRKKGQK

B1: His6-CMI1 (natural protein, Arabidopsis, UniProt O81831 1-130, looked up)
chain: MASPKSPTRPTQQNPQPNFHDFLPTMAGNLGGEGLIGELCNGFELLMDREKGVITFESLRRNAAAVLGLGDLTDEDVRCMIKEGDFDCDGALNQMEFCVLMFRLSPDLMEASRCLVTEVIEEEFGFTRRH
notes: CMI1, Arabidopsis, At4g27280; also called His-CMI1; source: E. coli Rosetta (DE3), purified (Ni-NTA)
B1: binds (GST-ICR1); binds (His6-ICR1).
